# In the DeepSol protein solubility set:
# Test: soluble on expression in E. coli; label from the status in PepcDB or PDB records
row,Sequence,soluble on expression in E. coli
1,MGSDKIHHHHHHAELPLEEGVSVRFEIKRDGVMSRAPGDAALSVNRILILPFRKTDEASSNDAANFVPEYSAARQLDVNSFPAVVTMLTLSAASTYQLLVIGYNRSDYDFASGGGATKRFNIGSTGNPATLANLYLQPVNPTVVPEFFSCFGNGYRGTTLVGPIFKPSQINYVTGTLKRLVSGFTLEVTNVPAYVNSMTLIAEQLVTATRATDGTALTWQTAGDGGTKTLATQAPVSGKVSFNQFLLAIPDSRKTLFYLDVSYGIFTERYTVKLPDTPGVVSGNRIIFTPNHWVKVTGSYANINIGFTLAGNINLDDNAWDGLQ,not soluble
2,MPLDVALKRKYYEEVRPELIRRFGYQNVWEVPRLEKVVINQGLGEAKEDARILEKAAQELALITGQKPAVTRAKKSISNFKLRKGMPIGLRVTLRRDRMWIFLEKLLNVALPRIRDFRGLNPNSFDGRGNYNLGLREQLIFPEITYDMVDALRGMDIAVVTTAETDEEARALLELLGFPFRK,soluble
3,VKILVDENMPYARDLFSRLGEVTAVPGRPIPVAQLADADALMVRSVTKVNESLLAGKPIKFVGTATAGTDHVDEAWLKQAGIGFSAAPGCNAIAVVEYVFSSLLMLAERDGFSLYDRTVGIVGVGNVGRRLQARLEALGIKTLLCDPPRADRGDEGDFRSLDELVQRADILTFHTPLFKDGPYKTLHLADEKLIRSLKPGAILINACRGAVVDNTALLTCLNEGQKLSVVLDVWEGEPELNVELLKKVDIGTSHIAGYTLEGKARGTTQVFEAYSKFIGHEQHVALDTLLPAPEFGRITLHGPLDQPTLKRLVHLVYDVRRDDAPLRKVAGIPGEFDKLRKNYLERREWSSLYVICDDASAASLLCKLGFNAVHHPAR,soluble
4,MRIEVTIAKTSPLPAGAIDALAGELSRRISHHFPENLGNVTVRYATANNLSVIGASKEDKERISEILQETWESADDWFINE,not soluble
5,MGSDKIHHHHHHMSAMLTVEGLGKSYRVWGSEWLRAASWFGLKVKPREEHWVLRNVGFSVTAGESIGIMGRNGAGKSTLLKLITGTSQPTEGRIVRRGRIAAILELGMGFNPDLSGRENARHSAGLMGYTLDQIEAVLPEIQEFAEIGDYFDEPVRTYSSGMQVRVAFAVATAFRPDVLIVDEALSVGDVYFQAKCFKRILSFKEKGMTLILVSHSVGDVVKHCDRAILIKDGGVYADGPSREVSNLYLDELFGKKPASLQAEAKDTPKDLRAGTEDLFHTRPYYNAGEHRWGQGGARILDYVVVSDGQEFPARVESGSRTAFYVKIAFDQDFDSVVPGILVKTLEGLFLYGTNSFLSSEGRTGIAAKAGDVIVCKFTMPLDLNEANYLISLGISSGDPLVELTPLDRRYDAIVLNVARGMQFWGMMDLKADFEIVEALS,not soluble
6,MGSDKIHHHHHHMPLYLKNHSYGEYVFDWAWANAYERAGHDYYPKLLSAIPFSPVTGKRLLAQTSEQRALLVSTALAIVRKGNAGAGMSSLHCLFPLEHEAREMERAGMMLRCGVQFHWKNRPGRGYENFEDFLGGMSYSKRKKIRQERRKVQDLGIHFEWLSGNDMDEDRWNFFIDCYNNTYREHHSRPYLNLEFFLRLGKSMPENILLILALQNKKPIGVAFNIHNSHTLYGRYWGAREFVPGLHFETCYYQAIQYCIANGLSLFEGGAQGEHKLARGFLPVRTWSAHWLVHSEFAAAIEGYLERETRDIDRYIHALEESAPFRKDARESE,not soluble
7,MGSDKIHHHHHHHTDKAEFLDFSNLTQYRQDVKTLASDAFEGRAPLSKGETLTLDFLVNAFKEMGLAPGFGDSYLQAVPMAKITAKQDMQLTIGALKFTHGKDFTARSQQIKPHIALNNSEVVFVGYGINAPEFGWNDYAGIDVKGKTVIMLVNDPGFATQDNKRFKGNAMTYYGRWTYKYEEAARQGAAAVFIVHETAPAGYGWGVVENSNTGSKFTLVDDNNNLSQIAVMGWLQHKATQQIFATAGLDFDSLKLSTHKAGFKTVDLNLSAKLNLDNSIEMAKSHNVLALLPGATEFDGKRNPQQDELVVMHAHWDHLGSKTHQDGSQEIFNGAVDNASGTAGVLALARAFKAKASVTPFKRSILFSAFTAEETGLIGAQYFAQNPSVPTKNIAAFLNIDGMNVNDGVSYILQYGQGVSELEDYLEDAAKAQQRTVKADPLPQNGLMFRSDHFALAQEGVPGLLFMSLGDTDPNYIDAKYHKEADDYDANWSLGGVSQDLSLIGSILARLANNSDWPKWLEDSDFKTRRSEDNR,not soluble
8,MLKIATFNVNSIRSRLHIVIPWLKENKPDILCMQETKVENRKFPEADFHRIGYHVVFSGSKGRNGVAIASLEEPEDVSFGLDSEPKDEDRLIRAKIAGIDVINTYVPQGFKIDSEKYQYKLQWLERLYHYLQKTVDFRSFAVWCGDMNVAPEPIDVHSPDKLKNHVCFHEDARRAYKKILELGFVDVLRKIHPNERIYTFYDYRVKGAIERGLGWRGDAILATPPLAERCVDCYADIKPRLAEKPSDHLPLVAVFDV,soluble
9,PQYIGGISNTFKYKNWEFSCFVTMQAGNKIRMNPSFDPAFADLNVFSKEYYNRWLNPGDERKTNIPVIPSQDLIRNIGKENIEKAYNTYNYSQNRVADGSFVRMKNISLGYRLPQRFLSHLKIKQMNVKVNVTNPFLIYSDRKLNGQDPEFYRSGGVSLPTPKQYTMTLNVEF,not soluble
10,MSLQKEEILKLPISYKNIRLIRLNLPQKEQFVSGIGVRNSRKALIIEWEDDNGTKGYGECSCRPDPYYSDEFIEGAIALVNQFIVPFLKQNQTFGDLLKLLDKIRGWNFTKAAVEMAALQVIEQNTGKSPFQLLQNKPLAHVPVGISLGLYTDVDRMKKVVKNALETGYKRLKFKISPKVRVDFFEEINPMLFEADTFVSFDANGSFGENDLDIFHYFANTYQSMIEQPFAPTRFDILSKVKKEHPEIYICYDEEIKSIGDLIKLHHLGMLDEVNLKVGRVGGVMKSIEIIQYCAEHNIPCWIGGMFETGIGRTLNLRMASYLPNARAHDLSPSDRYFLEDIVQPNVQMNNGLVNMESLKNCTIQPNLIDKYTIDQKTLTRICEGHHHHHH,soluble
11,GSPEFMELEIRPLFLVPDTNGFIDHLASLARLLESRKYILVVPLIVINELDGLAKGQETDHRAGGYARVVQEKARKSIEFLEQRFESRDSCLRALTSRGNELESIAFRSEDITGQLGNNDDLILSCCLHYCKDKAKDFMPASKEEPIRLLREVVLLTDDRNLRVKALTRNVPVRDIPAFLTWAQVG,soluble
12,MSLKIAVVQFPGSNCERETMLAVQRAGMTPVEFLWNDSSQKLREMDGYIIIGGFSYEDRSRAGIIAALDPVMKEIKLQSELGKPVLGICNGAQILVETGLVPGLKNYQIGMALTENKRIQDGKILGTGFYNSWIHMRTGDRVRQNAFTRYLSKDSVLSIPAAHAEGRFVMPVKLLQEIEEEGLNAFQYCDAQGNRDDNFPVNPNGSLRNIAAIINKAGNVMAIMPHPERTFAGDPIFHSMKEYIKEKKTFKQQTLSYQPEPVKIIPYDKKDNAHELIVKLIITDNAALTVQNTLRQLGIPVTVNRMMYWHVDTNFPETIEKIKQTGVLYNDRKEYLVTSEHIFSSAAKAFLVKSKDDMIGQQKLQMLRDHFSIDGVDAIHHGVLWMFSSENVKIQELAESILATNIIFNPNAHICYEYQCPEGHHHHHH,soluble
13,MSERLSITPLGPYIGAQISGADLTRPLSDNQFEQLYHAVLRHQVVFLRDQAITPQQQRALAQRFGELHIHPVYPHAEGVDEIIVLDTHNDNPPDNDNWHTDVTFIETPPAGAILAAKELPSTGGDTLWTSGIAAYEALSVPFRQLLSGLRAEHDFRKSFPEYKYRKTEEEHQRWREAVAKNPPLLHPVVRTHPVSGKQALFVNEGFTTRIVDVSEKESEALLSFLFAHITKPEFQVRWRWQPNDIAIWDNRVTQHYANADYLPQRRIMHRATILGDKPFYRAGLEHHHHHH,soluble
14,MGSDKIHHHHHHMFQDKYVFAQLASFLNRSKFNRIVTKYDGDKYVKHFTCWNQLLALMFGQLSNRESLRDLIVALEAHHSKCYHLGMGKNVSKSSLARANQDRDYHIFEEYAYYLVSEARQKCANHIFKLGGNVYAFDSTTIDLCLSVFWWAKFRKKKGGIKVHTLYDVETQIPAFFHITEASVHDSKVMIEIPYEPSSYYIFDRGYNNFKMLYKIHQIEAYFVVRAKKNLQYKSIQWKRRLPKNVLSDASVLLTGFYPKQYYPKPLRLVKYWDEEQEREFTFITNAMHISALQVAELYKNRWQVELFFKWLKQHLKIKRFWGTTENAVRIQIYAAICAYCLVAIIQHDMQLDRSTYEVLQILSISLTDKTHLRDLFDKTKFQNDKERFGPNGPSLFNF,not soluble
15,MGSDKIHHHHHHMQIRADFDSGNIQVIDASDPRRIRLAIRPDLASQHFQWFHFKVEGMAPATEHCFTLVNAGQSAYSHAWSGYQAVASYDGERWFRVPSQYDADGLHFQLEPEESEVRFAYFEPYSRERHARLVERALGIEGVERLAVGTSVQGRDIELLRVRRHPDSHLKLWVIAQQHPGEHMAEWFMEGLIERLQRPDDTEMQRLLEKADLYLVPNMNPDGAFHGNLRTNAAGQDLNRAWLEPSAERSPEVWFVQQEMKRHGVDLFLDIHGDEEIPHVFAAGCEGNPGYTPRLERLEQRFREELMARGEFQIRHGYPRSAPGQANLALACNFVGQTYDCLAFTIEMPFKDHDDNPEPGTGWSGARSKRLGQDVLSTLAVLVDELR,not soluble
16,MSLRWEGALSAGQRKASNAIVVNLKAKTDMLLWAVAGSGKTEMMFEGMDWALRQGFRICVASPRVDVCLELLPRLKEAFPSIDIVCLYGDSKDNYQGEQFVIATTHQLIRFYEAFQVIFIDEVDAFPYAKDPFLEYAVMKARTKEGSTIIITATPEKKWQEECVRGKRNFVKIPGRYHRKKLPVPRTCWIGPWKKNLAKGKITPKLIQWMNDVKKKDQPALIFFPEIDAMNKFANALENKGYASEGHHHHHH,not soluble
17,MSLGEKGQAEIIKSLTEQLDQVQSLDDDRIIRRYMEMINATLRTNYYQLDEHKQNKPWLSLKMKPSEIPEIPAPVPAFEIFVYAPDIEGVHLRGGKVARGGLRWSDRQEDFRTEILGLVKAQQVKNTVIVPVGAKGGFVCKKQYLYTTRDEIFAEGQRCYKRFIRALLDVTDNIIEGQVVPPKNVVRHDEDDPYLVVAADKGTATFSDLANSVSAEYQFWLGDAFASGGSNGYDHKAMGITAKGGWESVKRHFREMGIDCQTTDFTAIGIGDMAGDVFGNGMLLSKHIRLLAAFNHIHIFIDPTPDSASSWEERNRLFNLPRSSWEDYNPKLISKGGGVFSRKAKAITLTPEMQKMLNTKKTTLAPNELIKMILKMEVDLLWNGGIGTYVKSSIETHTDVGDRANDGLRVDGREVNAKIIGEGGNLGMTQRGRIEFALKGGRVNTDFVDNVGGVDCSDNEVNIKIFLNGLVANGDLTLKQRNQILESMKDEVGSIVIEDAYGQSESISVTEAQGEGHHHHHH,not soluble
18,GANNDMPVEQILEAELAVDPKIDTYIDAQKDPVTNICQAADKQLFTLVEWAKRIPHFTELPLEDQVILLRAGWNELLIAGFSHRSIMAKDGILLATGLHVHRSSAHQAGVGTIFDRVLTELVAKMRDMKMDKTELGCLRAVVLFNPDAKGLTAVQEVEQLREKVYASLEEYTKSRYPEEPGRFAKLLLRLPALRSIGLKCLEHLFFFKLIGDQPIDTFLMEMLENPSPAT,soluble
19,MSAEGFLAEHAHRRPSSRRRRAAQFGSPLTPGQDETVSDRTTADLERELAMLAYVRDRLRASEGEGFRIPTTAVDQVLDERNSLERSPWDPT,not soluble
20,GMVRYPLEPVLSIKKDRVDRAEKVVKEKRRLLELEQEKLRERESERDKVKNHYMQKIRQLREQLDDGTTSDAILKMKAYIKVVAIQLSEEEEKVNKQKENVLAASKELERAEVELTKRRKEEEKTRLHKEEWMKEALKEEARQEEKEQDEMGQLLHQLHKQKQRESGEN,soluble
